# In US20220411799, “DNMT1-Specific Aptamers and Production and Uses Thereof” (National University of Singapore, published 2022):
# Positions count from the first letter of the chain named.
# B1: Ce-10-2 sh (ssRNA)
# RNA: UUACUGGGCUGAGGUAAUGGCGAGG
# modifications: 2'-F pyrimidines
# B2: Ce-9 (long, 61-mer) (ssRNA)
# RNA: GGGCUGAAGGGGUUACUGGGCUGAGCUCAUGGCGAGGCUUCUUAUCUGCCCCGGGGAGGAG
# modifications: 2'-F pyrimidines
# B3: Ce-10 (long, 61-mer) (ssRNA)
# RNA: B2 RNA with C26G, C28A
# modifications: 2'-F pyrimidines
# B4: Ce-10-R5 (ssRNA)
# RNA: CUGAGGUAAUGGCGAGGCUUCU
# modifications: 2'-F pyrimidines (listed with T in the sequence, described as RNA)
# B5: Ce-49 sh (ssRNA)
# RNA: CUGAGGCCUAACGAAGGCUUCU
# modifications: 2'-F pyrimidines
# B6: Ce-49 (long, 61-mer) (ssRNA)
# RNA: GGGCUGAAGGGGUUACUGGGCUGAGGCCUAACGAAGGCUUCUUAUCUGCCCCGGGGAGGAG
# modifications: 2'-F pyrimidines
# B7: Ce-9 sh (ssRNA)
# RNA: UGGGCUGAGCUCAUGGCGAGGCUUC
# modifications: 2'-F pyrimidines
# B8: R5-F (DNMT1 bait) (ssRNA)
# RNA: CUGAGGCCUUGGCGAGGCUUCU
# modifications: 2'-F pyrimidines
# B9: Ce-10-1 sh (ssRNA)
# RNA: AGGUAAUGGCGAGGCUUCUUAUCUG
# modifications: 2'-F pyrimidines
# Experiments:
# DNMT1 [1] = molecular target: T1, DNMT1 (Homo sapiens, UniProt P26358 P26358:1-1616); test: BLI; BLItz, mutR5 background subtracted; details: tags: His-tagged (Active Motif), full-length; GST-tagged version (Active Motif) used for SELEX; label: 3'-biotin (ELONA, pulldown); hairpin
# Description: FIG. 4. Affinity and in vivo binding of DNMT1-specific aptamers. a. Analysis of Ce-49 sh and Ce-10 sh binding affinity to DNMT1 assessed by the Blitz system (ForteBIO). The background values obtained with mutR5 used as a negative control were subtracted from the values obtained with the aptamers; REMSA showing stronger Ce-49 sh and Ce-10 sh binding ability to DNMT1 than two alternative secondary structures of the original R5F (R5modified with 2′F-Py). Unrelated RNA and DNA are two […] controls. R01(unable to form stem-loop-like structures) is used as negative control; c. Increasing amount of Ce-49 sh and Ce-10 sh biotinylated aptamers were incubated in the presence or absence of HSA purified protein. No significant difference was detected between the blank control and the aptamers by ELONA. Error bars depict mean±s.d.; d. Aptamer-mediated pull-down. Protein extract from K562 cells were incubated with the biotinylated R5-F, Ce-49 sh and Ce-10-2 sh. Bound proteins were purified on streptavidin beads and immunoblotted with anti-DNMT1 antibodies.
# Next, aptamer affinity to DNMT1 was assessed by the Blitz system (ForteBIO).
# KAT5 = KAT5 (UniProt Q92993 Q92993:1-513); test: BLI; specificity control; details: label: 3'-biotin (ELONA, pulldown); hairpin
# DNMT3B = DNMT3B (UniProt Q9UBC3 Q9UBC3:1-853); test: BLI; specificity control
# DNMT3A = DNMT3A (UniProt Q9Y6K1 Q9Y6K1:1-912); test: BLI; specificity control
# DNMT1 [2] = molecular target: T1, DNMT1; test: inhibition; in vitro DNMT1 inhibitor screening assay; details: tags: His-tagged (Active Motif), full-length; GST-tagged version (Active Motif) used for SELEX; label: 3'-biotin (ELONA, pulldown); hairpin
# Protocol: FIG. 5. Functional activity of the aptamers. (a) Activity of purified DNMT1 protein was analyzed in vitro by DNMT1 inhibitor screening assay in the absence (“-”) or in the presence of indicated aptamers. Results are expressed as percentage relative to the activity of DNMT1 protein alone; b. DNMT1 inhibitor screening assay performed with K-562 nuclear extracts from untreated cells (NT), treated with a sequence unable to bind DNMT1 (control) or transfected with the respective aptamers Ce-10-2 sh and Ce-49 sh. Results are expressed as percentage relative to the activity detected in NT sample; c. expression levels 72 hours upon aptamers transfection; d, e. Cell viability of CML K562 cells (d) or NSCLC Calu-1 and A549 cells (e) transfected with indicated aptamers or Cont. for 72 hours. In (a-d) Error bars depict mean±s.d.; R5-F: R5 sequence modified with 2′F-Py.
# As next step, the present disclosure tested aptamer ability to inhibit DNMT1-mediated methylation. As first attempt, the present disclosure performed an in vitro DNMT1 inhibitor screening assay. The activity of DNMT1 purified protein was measured in the absence or in the presence of R5-F or the selected short sequences. […] The functional effects of the best binders (Ce-49 sh and Ce-10-2 sh) was further characterized monitoring the in vivo DNMT1 activity by using cell nuclear extracts from chronic K562 CML cells transfected with the aptamers (FIG. 5b).
# [3] = molecular target: Human serum albumin (HSA) (Homo sapiens, UniProt P02768 P02768:25-609); test: ELONA; no significant binding up to 750 nM; details: label: 3'-biotin (ELONA, pulldown); hairpin
# Protocol: (§1) Microtiter High Binding plate (Nunc MaxiSorp) wells were coated with 30 nM of His-tagged DNMT1 (Active Motif) or HSA overnight at 4° C. All subsequent steps were performed at room temperature. After incubation, the plate was washed once with PBS and then blocked each well with 300 μl 3% BSA (AppliChem) in PBS for 2 hours. After two washes, the plate was incubated with 100 μL of 3′-biotinylated aptamers dissolved in PBS for 2 hours. Next, the plate was washed three times and streptavidin-conjugated horseradish peroxidase (HRP) (Sigma Aldrich) was added (1:10000 dilution). After 1-hour incubation, the plate was washed four times and the 3,3′,5,5′-Tetramethylbenzidine (TMB) substrate solution was added. The reaction was stopped with sulfuric acid (H₂SO₄) 0,16 M, forming a yellow reaction product that was read with microplate Reader (Thermo Scientific) at 450 nm.
# To check the aptamer specificity, the present disclosure monitored the binding of Ce-49 sh and Ce-10-2 sh to the human serum albumin (HSA), the most enriched plasma protein that can bind, in a nonspecific manner, nucleic acids through its positive charge, thus limiting their use. […] As shown, no significant aptamer binding was measured up to 750 nM concentration. Binding was instead detected when aptamers were incubated with DNMT1 protein (FIG. 7).
# DNMT1 [4] = molecular target: T1, DNMT1; test: ELONA; 200 nM aptamer; details: tags: His-tagged (Active Motif), full-length; GST-tagged version (Active Motif) used for SELEX; label: 5'-biotin; hairpin
# Protocol: as §1
# The present disclosure identified three clusters of sequences with two aptamers (Ce-9 and Ce-10) representing the most enriched ones (FIG. 2a). These two aptamers present two mismatches among them and both had three mutation points compared to R5 (FIG. 2b). These sequences, together with Ce-49 that comes from a different cluster, were tested for the binding to DNMT1 purified protein by ELONA at 200 nM concentration.
# DNMT1 [5] = molecular target: T1, DNMT1; test: inhibition; all short sequences stated; details: tags: His-tagged (Active Motif), full-length; GST-tagged version (Active Motif) used for SELEX; label: 3'-biotin; hairpin
# DNMT1 [6] = molecular target: T1, DNMT1; test: BLI; 100 nM to 2 uM; R2=0.9017; p159 states Kd not measurable; details: tags: His-tagged (Active Motif), full-length; GST-tagged version (Active Motif) used for SELEX; label: 3'-biotin (ELONA, pulldown); hairpin
# Protocol: Dose-response binding analyses were also performed with the 2′F-pyrimidine modified R5 (indicated as DNMT1-bait) at concentrations ranging between 100 nM and 2 μM, since no binding was detected at lower concentrations (FIG. 8a). In accordance with previous findings, no binding was detected for the mutR5 sequence which is unable to fold in stem-loop-like structures and used as a negative control (FIG. 8b).
# KAT5, sequence (Q92993 whole entry, one chain of several): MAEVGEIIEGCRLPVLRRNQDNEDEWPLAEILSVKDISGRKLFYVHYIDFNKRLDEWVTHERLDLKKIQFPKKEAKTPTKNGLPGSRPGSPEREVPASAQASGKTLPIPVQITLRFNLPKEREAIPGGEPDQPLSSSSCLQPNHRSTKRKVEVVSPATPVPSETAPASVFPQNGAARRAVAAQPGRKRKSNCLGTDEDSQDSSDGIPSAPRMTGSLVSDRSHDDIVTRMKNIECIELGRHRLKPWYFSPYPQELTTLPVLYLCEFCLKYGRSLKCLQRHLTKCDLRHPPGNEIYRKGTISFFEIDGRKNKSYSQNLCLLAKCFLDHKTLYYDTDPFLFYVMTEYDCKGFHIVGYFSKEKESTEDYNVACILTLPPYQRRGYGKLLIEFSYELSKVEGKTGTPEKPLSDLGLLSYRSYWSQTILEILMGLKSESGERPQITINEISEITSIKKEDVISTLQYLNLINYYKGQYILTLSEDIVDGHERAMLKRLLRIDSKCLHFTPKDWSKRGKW
# T1 sequence (P26358 whole entry, one chain of several): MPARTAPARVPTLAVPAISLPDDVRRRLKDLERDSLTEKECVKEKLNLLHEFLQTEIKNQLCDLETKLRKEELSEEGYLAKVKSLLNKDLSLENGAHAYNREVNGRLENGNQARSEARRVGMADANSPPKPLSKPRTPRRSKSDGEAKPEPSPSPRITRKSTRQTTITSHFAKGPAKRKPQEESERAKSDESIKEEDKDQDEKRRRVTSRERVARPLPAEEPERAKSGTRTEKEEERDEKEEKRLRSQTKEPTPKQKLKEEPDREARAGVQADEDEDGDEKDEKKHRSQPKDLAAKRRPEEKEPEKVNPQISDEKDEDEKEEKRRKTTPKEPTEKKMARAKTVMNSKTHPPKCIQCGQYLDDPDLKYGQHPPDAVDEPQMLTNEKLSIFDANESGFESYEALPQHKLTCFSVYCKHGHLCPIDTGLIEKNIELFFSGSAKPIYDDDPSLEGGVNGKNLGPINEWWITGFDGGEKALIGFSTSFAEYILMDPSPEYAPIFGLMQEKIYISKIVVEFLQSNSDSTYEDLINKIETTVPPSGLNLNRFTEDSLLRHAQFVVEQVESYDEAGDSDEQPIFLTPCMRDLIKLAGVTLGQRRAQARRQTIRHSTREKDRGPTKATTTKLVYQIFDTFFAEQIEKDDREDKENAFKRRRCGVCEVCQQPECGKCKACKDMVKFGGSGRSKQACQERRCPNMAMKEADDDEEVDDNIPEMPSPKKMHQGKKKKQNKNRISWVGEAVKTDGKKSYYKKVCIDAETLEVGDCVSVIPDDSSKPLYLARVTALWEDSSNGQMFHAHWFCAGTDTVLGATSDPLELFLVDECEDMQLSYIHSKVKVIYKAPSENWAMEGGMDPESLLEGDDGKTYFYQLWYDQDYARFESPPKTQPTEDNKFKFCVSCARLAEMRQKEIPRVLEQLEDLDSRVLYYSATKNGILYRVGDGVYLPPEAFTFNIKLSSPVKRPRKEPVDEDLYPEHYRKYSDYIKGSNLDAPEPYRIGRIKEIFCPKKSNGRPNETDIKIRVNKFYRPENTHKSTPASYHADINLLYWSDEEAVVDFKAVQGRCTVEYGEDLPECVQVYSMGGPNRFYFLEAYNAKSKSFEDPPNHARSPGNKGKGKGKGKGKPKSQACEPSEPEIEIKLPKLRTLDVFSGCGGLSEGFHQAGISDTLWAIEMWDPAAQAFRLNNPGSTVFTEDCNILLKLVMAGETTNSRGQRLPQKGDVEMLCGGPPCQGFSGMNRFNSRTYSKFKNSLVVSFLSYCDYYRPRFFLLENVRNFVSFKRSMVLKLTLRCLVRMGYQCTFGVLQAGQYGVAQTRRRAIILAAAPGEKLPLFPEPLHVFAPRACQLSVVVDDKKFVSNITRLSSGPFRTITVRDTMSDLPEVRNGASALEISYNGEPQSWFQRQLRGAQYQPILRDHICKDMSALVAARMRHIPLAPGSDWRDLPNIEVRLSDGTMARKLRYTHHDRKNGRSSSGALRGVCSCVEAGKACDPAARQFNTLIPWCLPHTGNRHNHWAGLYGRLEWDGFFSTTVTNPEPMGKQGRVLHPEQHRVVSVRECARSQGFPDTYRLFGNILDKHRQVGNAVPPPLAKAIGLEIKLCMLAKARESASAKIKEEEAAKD
# DNMT3A, sequence (Q9Y6K1 whole entry, one chain of several): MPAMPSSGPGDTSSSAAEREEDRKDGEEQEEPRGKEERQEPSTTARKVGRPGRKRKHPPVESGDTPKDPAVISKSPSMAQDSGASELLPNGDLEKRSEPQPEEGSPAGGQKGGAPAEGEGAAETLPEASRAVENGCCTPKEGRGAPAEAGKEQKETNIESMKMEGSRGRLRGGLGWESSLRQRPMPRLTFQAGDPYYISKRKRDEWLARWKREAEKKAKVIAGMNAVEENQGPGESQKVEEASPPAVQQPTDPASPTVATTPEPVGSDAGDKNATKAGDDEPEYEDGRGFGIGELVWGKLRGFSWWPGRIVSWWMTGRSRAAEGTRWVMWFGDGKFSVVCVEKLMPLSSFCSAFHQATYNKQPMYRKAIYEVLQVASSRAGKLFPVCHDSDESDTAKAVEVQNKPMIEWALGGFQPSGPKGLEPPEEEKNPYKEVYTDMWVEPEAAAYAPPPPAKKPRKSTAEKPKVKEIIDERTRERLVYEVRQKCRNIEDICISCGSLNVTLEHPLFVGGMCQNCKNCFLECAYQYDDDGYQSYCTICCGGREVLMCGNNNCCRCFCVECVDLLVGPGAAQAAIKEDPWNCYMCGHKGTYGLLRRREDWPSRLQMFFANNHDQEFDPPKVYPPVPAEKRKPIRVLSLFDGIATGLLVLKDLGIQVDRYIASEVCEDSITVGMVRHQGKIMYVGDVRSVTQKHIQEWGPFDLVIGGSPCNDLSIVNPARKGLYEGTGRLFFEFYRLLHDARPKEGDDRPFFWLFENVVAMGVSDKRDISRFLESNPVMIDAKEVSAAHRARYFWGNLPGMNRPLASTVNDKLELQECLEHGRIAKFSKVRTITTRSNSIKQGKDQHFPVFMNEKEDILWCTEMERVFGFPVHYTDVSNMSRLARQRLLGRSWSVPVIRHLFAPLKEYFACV
# Human serum albumin (HSA), sequence (P02768 25-609, one chain of several): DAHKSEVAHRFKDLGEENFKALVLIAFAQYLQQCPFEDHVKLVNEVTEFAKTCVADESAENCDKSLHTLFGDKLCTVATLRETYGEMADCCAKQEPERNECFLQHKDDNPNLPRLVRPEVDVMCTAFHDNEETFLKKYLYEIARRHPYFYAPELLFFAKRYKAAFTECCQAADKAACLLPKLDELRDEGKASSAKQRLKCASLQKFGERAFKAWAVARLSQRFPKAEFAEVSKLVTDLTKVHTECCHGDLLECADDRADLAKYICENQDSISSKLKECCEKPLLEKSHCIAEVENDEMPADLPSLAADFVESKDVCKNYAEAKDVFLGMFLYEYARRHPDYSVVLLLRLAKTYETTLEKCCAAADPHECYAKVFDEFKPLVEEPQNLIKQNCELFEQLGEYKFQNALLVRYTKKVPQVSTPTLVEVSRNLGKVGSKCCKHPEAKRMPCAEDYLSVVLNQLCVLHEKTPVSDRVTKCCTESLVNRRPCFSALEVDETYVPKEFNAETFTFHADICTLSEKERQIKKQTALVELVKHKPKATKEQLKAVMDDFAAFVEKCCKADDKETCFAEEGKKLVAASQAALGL
binder,measurement,setting,value
B1,Kd,DNMT1 [1],~66 nM
same,binding result,KAT5,no binding
same,binding result,DNMT3B,no binding
same,binding result,DNMT3A,no binding
same,activity,DNMT1 [2],~40 % inhibition
same,binding result,[3],no binding
B2,binding result,DNMT1 [4],binds
B3,binding result,DNMT1 [4],binds
B4,activity,DNMT1 [5],~40 % inhibition
B5,Kd,DNMT1 [1],~79 nM
same,binding result,KAT5,no binding
same,binding result,DNMT3B,no binding
same,binding result,DNMT3A,no binding
same,activity,DNMT1 [2],~40 % inhibition
same,binding result,[3],no binding
B6,binding result,DNMT1 [4],binds
B7,activity,DNMT1 [5],~40 % inhibition
B8,Kd,DNMT1 [6],600 nM
same,binding result,KAT5,no binding
same,binding result,DNMT3B,no binding
same,binding result,DNMT3A,no binding
same,activity,DNMT1 [2],~40 % inhibition
B9,activity,DNMT1 [5],~40 % inhibition
